Measured values reported in the supplement of paper PMC7125110.
± gives the standard error. For some assays here: Variants at the floor of the assay were thinned out.

B1: glmS ribozyme (parent)
chain: AUAAAAGCGCCAGAACUACAGAAAUGUAGUUGACGAGGAGGAGGUUUAUCGAAUUUUCGGCGGAUGCCUCCAAA

Assays:
Settings in all cases: with glucosamine-6-phosphate
glucosamine-6-phosphate [1] = variants of: B1; assay: self-cleavage kobs at 40 uM GlcN6P; higher = faster cleavage; RNA array
How it was run: (§1)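 Using a hybridised Cy3 probe at 37 °C, barcoded ribozyme variants transcribed in situ by E. coli RNA polymerase on sequenced MiSeq chips were monitored across tiles imaged over ~14 h. The flow contained glucosamine-6-phosphate from 40 μM to 10 mM in HEPES/KCl/Mg(OAc)2 buffer. Signals were normalised to baseline and to non-cleaving reference variants before per-tile medians were fit to one- or two-exponential decays to yield kobs. Weighted Michaelis–Menten fits across concentrations gave kcat and KM.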

glucosamine-6-phosphate [2] = variants of: B1; assay: self-cleavage kobs at 640 uM GlcN6P; higher = faster cleavage; RNA array
How it was run: as §1

glucosamine-6-phosphate [3] = variants of: B1; assay: self-cleavage kobs at 10000 uM GlcN6P; higher = faster cleavage; RNA array
How it was run: as §1

glucosamine-6-phosphate [4] = variants of: B1; assay: kcat; higher = faster cleavage; RNA array
How it was run: as §1

glucosamine-6-phosphate [5] = variants of: B1; assay: self-cleavage kobs at 2500 uM GlcN6P; higher = faster cleavage; RNA array
How it was run: as §1

glucosamine-6-phosphate [6] = variants of: B1; assay: self-cleavage kobs at 160 uM GlcN6P; higher = faster cleavage; RNA array
How it was run: as §1

glucosamine-6-phosphate [7] = variants of: B1; assay: KM; higher = weaker cofactor use; RNA array
How it was run: as §1

Variant	self-cleavage kobs at 40 uM GlcN6P (glucosamine-6-phosphate [1]) [s⁻¹]	self-cleavage kobs at 640 uM GlcN6P (glucosamine-6-phosphate [2]) [s⁻¹]	self-cleavage kobs at 10000 uM GlcN6P (glucosamine-6-phosphate [3]) [s⁻¹]	kcat (glucosamine-6-phosphate [4]) [s⁻¹]	self-cleavage kobs at 2500 uM GlcN6P (glucosamine-6-phosphate [5]) [s⁻¹]	self-cleavage kobs at 160 uM GlcN6P (glucosamine-6-phosphate [6]) [s⁻¹]	KM (glucosamine-6-phosphate [7]) [µM]
A6G A36U C50U	< 1e-05	< 1e-05	< 1e-05	–	–	–	–
G66C C71A	–	–	0.000132 ± 2.2e-05	0.000163 ± 2.2e-05	0.000143 ± 1.5e-05	–	–
A6G A15U C16G A53G C61G G63A	< 1e-05	< 1e-05	–	–	< 1e-05	< 1e-05	–
A6C G29C A36U C61U	< 1e-05	–	< 1e-05	–	< 1e-05	–	–
U65A C70G	–	7.89e-05 ± 1e-05	7.32e-05 ± 7.6e-06	7.88e-05 ± 4.1e-06	7.95e-05 ± 1e-05	5.95e-05 ± 1.2e-05	66.3 ± 25
A6G G32C C34G C71U	< 1e-05	< 1e-05	–	–	–	< 1e-05	–
A6G A12U U65G	< 1e-05	–	0.000137 ± 4.1e-05	–	–	–	–
G66U U69G	–	5.52e-05 ± 2.5e-05	–	3.26e-05 ± 1.2e-05	4.9e-05 ± 2.2e-05	–	–
A6C G44U G51A	< 1e-05	–	< 1e-05	–	–	–	–
A36C C61U	–	–	–	–	–	–	44.5 ± 18
A6G C50A U65G	< 1e-05	–	–	–	–	–	–
A6G C34A	< 1e-05	< 1e-05	< 1e-05	–	< 1e-05	< 1e-05	–
A6G G51U U65A	< 1e-05	–	< 1e-05	–	–	–	–
U65A U69G	–	4.35e-05 ± 1.4e-05	–	5.5e-05 ± 1.5e-05	8.3e-05 ± 1.9e-05	7.34e-05 ± 1.9e-05	–
C67G C68U	–	5.35e-05 ± 6.6e-06	6.92e-05 ± 6.7e-06	7.04e-05 ± 1.8e-06	6.33e-05 ± 6e-06	2.51e-05 ± 1e-05	234 ± 34
A6G G60A	< 1e-05	< 1e-05	< 1e-05	–	< 1e-05	< 1e-05	–
A72C	0.000372 ± 7.3e-05	0.00257 ± 0.00043	0.0121 ± 0.0021	0.00605 ± 0.0029	0.00362 ± 0.00077	–	–
A6G U31C U55G	< 1e-05	–	5.16e-05 ± 1.9e-05	–	4.23e-05 ± 1.7e-05	–	–
A6G A42U A64G	< 1e-05	< 1e-05	< 1e-05	–	< 1e-05	–	–
A6G G9A G38A G41A U57A	< 1e-05	< 1e-05	–	–	< 1e-05	< 1e-05	–
C70A C71G	–	5.81e-05 ± 7.8e-06	5.37e-05 ± 7.8e-06	5.62e-05 ± 4.3e-06	5.08e-05 ± 7.8e-06	3.29e-05 ± 1.1e-05	–
C70A C71U	–	5.75e-05 ± 1e-05	–	9.41e-05 ± 4.3e-06	8.22e-05 ± 1e-05	2.83e-05 ± 1e-05	384 ± 58
A6C G60A	< 1e-05	< 1e-05	–	–	< 1e-05	–	–

Variant	self-cleavage kobs at 40 uM GlcN6P (glucosamine-6-phosphate [1]) [s⁻¹]	self-cleavage kobs at 640 uM GlcN6P (glucosamine-6-phosphate [2]) [s⁻¹]	self-cleavage kobs at 10000 uM GlcN6P (glucosamine-6-phosphate [3]) [s⁻¹]	kcat (glucosamine-6-phosphate [4]) [s⁻¹]	self-cleavage kobs at 2500 uM GlcN6P (glucosamine-6-phosphate [5]) [s⁻¹]	self-cleavage kobs at 160 uM GlcN6P (glucosamine-6-phosphate [6]) [s⁻¹]	KM (glucosamine-6-phosphate [7]) [µM]
A6G C8G C10G A52U G60A	< 1e-05	–	–	–	–	–	–
U69A C70G	–	–	–	1.72e-05 ± 8e-06	–	–	–
C67G C71U	–	–	2.63e-05 ± 6.7e-06	2.93e-05 ± 3.2e-06	3.07e-05 ± 8.1e-06	–	–
A6G C10U A39U	< 1e-05	–	< 1e-05	–	< 1e-05	< 1e-05	–
C34U A42U	–	–	–	–	–	–	70.4 ± 29
G66A C68G	–	5.08e-05 ± 7.5e-06	7.85e-05 ± 7.5e-06	6.98e-05 ± 9.4e-06	4.73e-05 ± 1e-05	3.51e-05 ± 1.2e-05	–
U31G G51C	–	–	–	–	–	–	210 ± 61
U65A C67G C71G	–	–	–	2.24e-05 ± 6.2e-06	–	–	–
A6C G51U U56A	< 1e-05	–	–	–	–	–	–
A42G U55C	0.000832 ± 0.00014	0.0147 ± 0.0051	0.0147 ± 0.0029	–	0.0354 ± 0.016	0.00147 ± 0.00063	895 ± 430
A6G A36G	< 1e-05	< 1e-05	< 1e-05	–	< 1e-05	–	–
A6G C10G U31G U55A	< 1e-05	–	–	–	–	–	–
A6G A15C C16U	< 1e-05	–	4.37e-05 ± 1.5e-05	–	–	–	–
U65C U69G	–	–	–	4.17e-05 ± 1.1e-05	5.5e-05 ± 2.3e-05	–	–
C11U C50U	–	–	–	–	–	–	98.2 ± 43
G66C C67G	–	2.84e-05 ± 1.3e-05	–	2.61e-05 ± 7.8e-06	–	–	–
A6G A33U C58G C67U C71A	5.47e-05 ± 2.5e-05	0.000593 ± 0.00019	–	–	0.000109 ± 4.9e-05	9.68e-05 ± 2.9e-05	–
A39C C50U	–	–	–	–	–	–	1080 ± 200
A6G C10U A39G C58A	< 1e-05	–	< 1e-05	–	< 1e-05	–	–
C68U U69C	–	–	6.79e-05 ± 1.1e-05	8.69e-05 ± 6.8e-06	3.88e-05 ± 1.4e-05	–	2850 ± 730
C68U U69G	–	–	–	2.33e-05 ± 5.5e-06	3.45e-05 ± 1.6e-05	–	–
U65G C70A	–	7.93e-05 ± 1.6e-05	0.000167 ± 2.7e-05	0.000185 ± 1.6e-05	0.000183 ± 6.7e-05	–	825 ± 210
